# Experimental data as given in publication PMC12404492, “The crystal structure of Thermus thermophilus UMP kinase complexed with a phosphoryl group acceptor and donor” (PLOS One, 2025).
# Substrate: O=c1ccn([C@@H]2O[C@H](COP(=O)(O)O)[C@@H](O)[C@H]2O)c(=O)[nH]1
# Assay: purified protein
# Type: biochemical, Thermus thermophilus
# Details: without GTP, 1 mM ATP, 5 mM MgCl2, 100 mM KCl, 50 mM Tris-HCl pH 7.5, 25°C
protein,measurement,value
"ttUMPK (UMP kinase of Thermus thermophilus HB8) (Thermus thermophilus HB8) (protein, full-length gene in pET-11a (NdeI/BamHI), no tag mentioned; expressed in E. coli BL21(DE3), heat-treated; homohexamer by size exclusion) MKYKRVLLKLSGEFLTRNGFGIEPEATQALAREIKAAYDTGVQLAIVIGAGNLWRGARQGVGMDRATADYIGMLATIMNALALQDALESLGVPTRVQTALTITQVAEPYIRRRALRHLEKERIVIFGGGTGNPFFSTDTAAALRALEVGAEVVLMAKNKVDGVYSDDPRKNPEAVRFDELTYLEVLNRGLQVMDTTAITLCMEAGLPIVVFDIFKPGALVGIIQGEKVGTLIH",Km,46 µM
same,kcat,13 s⁻¹
